From US11746139B2, “IL-7Rαγc binding compounds” (MEDIKINE, INC., priority 2020, dated 2023)

Experiments:
[1] = molecular target: IL-7Rα (Homo sapiens, UniProt P16871); assay: Competition binding ELISA with bn407::NA-HRP precomplex; details: bn407:NA-HRP 10 nM final; read-out: Competitive Binding ELISA bn407:NA-HRP (10 nMf) IC50 M
[2] = molecular target: T1, Rγc subunit (Homo sapiens, UniProt P31785); assay: Phage competitive binding assay characterizing the Rγc ligand binding site; details: for Competition with Phage Clone SEQ ID NO: 198 (Family 1A) for binding to the Rγc subunit: phage clone 198, immobilized Rγc ECD; for Competition with Phage Clone SEQ ID NO: 224 (Family 1B) for binding to the Rγc subunit: phage clone 224, immobilized Rγc ECD; for Competition with Phage Clone SEQ ID NO: 236 (Family 2) for binding to the Rγc subunit: phage clone 236, immobilized Rγc ECD; for Competition with Phage Clone SEQ ID NO: 248 (Family 3) for binding to the Rγc subunit: phage clone 248, immobilized Rγc ECD; for Competition with Phage Clone SEQ ID NO: 266 (Family 4) for binding to the Rγc subunit: phage clone 266, immobilized Rγc ECD; for Competition with Phage Clone SEQ ID NO: 930 (Family 5) for binding to the Rγc subunit: phage clone 930, immobilized Rγc ECD
T1 construct: purchased ACRObiosystems, Inc. ILG-H5256
T1 sequence (P31785 23-254): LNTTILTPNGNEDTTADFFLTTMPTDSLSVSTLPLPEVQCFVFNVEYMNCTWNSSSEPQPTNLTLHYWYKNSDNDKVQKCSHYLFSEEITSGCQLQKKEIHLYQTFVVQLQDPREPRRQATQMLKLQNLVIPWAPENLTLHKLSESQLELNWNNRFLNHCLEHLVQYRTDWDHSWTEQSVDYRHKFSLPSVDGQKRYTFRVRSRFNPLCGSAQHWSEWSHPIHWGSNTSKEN

[3] = molecular target: IL-7Rα subunit (Homo sapiens, UniProt P16871); assay: Phage competitive binding assay characterizing the IL-7Rα ligand binding site
IL-7Rα subunit, sequence (P16871 21-236): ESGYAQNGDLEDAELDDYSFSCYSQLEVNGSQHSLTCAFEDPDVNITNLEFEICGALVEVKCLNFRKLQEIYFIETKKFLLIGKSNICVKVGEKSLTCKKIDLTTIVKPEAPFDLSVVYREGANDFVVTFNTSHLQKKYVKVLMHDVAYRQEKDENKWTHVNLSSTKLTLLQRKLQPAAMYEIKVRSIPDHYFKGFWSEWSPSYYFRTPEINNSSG

IL-7Rα, sequence (P16871 21-236): as above

| Compound | IC50 [1] [nM] | Competition with Phage Clone SEQ ID NO: 198 (Family 1A) for binding to the Rγc subunit [2] | Competition with Phage Clone SEQ ID NO: 224 (Family 1B) for binding to the Rγc subunit [2] | Competition with Phage Clone SEQ ID NO: 236 (Family 2) for binding to the Rγc subunit [2] | Competition with Phage Clone SEQ ID NO: 248 (Family 3) for binding to the Rγc subunit [2] | Competition with Phage Clone SEQ ID NO: 266 (Family 4) for binding to the Rγc subunit [2] | Competition with Phage Clone SEQ ID NO: 930 (Family 5) for binding to the Rγc subunit [2] | also measured |
| --- | --- | --- | --- | --- | --- | --- | --- | --- |
| CC[C@H](C)[C@H](N)C(=O)N1CCC[C@H]1C(=O)N[C@@H](Cc1c[nH]c2ccccc12)C(=O)N[C@H]1CSSC[C@@H](C(=O)N[C@@H](C)C(=O)N[C@@H](Cc2c[nH]c3ccccc23)C(=O)N[C@@H](CC(C)C)C(=O)N[C@@H](CCCNC(=N)N)C(=O)N[C@@H](CCC(N)=O)C(=O)N[C@@H](CCSC)C(=O)NCC(=O)NCC(=O)O)NC(=O)[C@H](CCC(N)=O)NC(=O)[C@H](CC(C)C)NC(=O)CNC(=O)CNC(=O)[C@@H]2CCCN2C(=O)[C@H](CC(=O)O)NC(=O)[C@H](CC(C)C)NC(=O)[C@H]([C@@H](C)O)NC1=O [SEQ ID NO: 420, I P W C T L D P G G L Q C A W L R Q M] | 705 |  |  |  |  |  |  |  |
| CC[C@H](C)[C@H](N)C(=O)N1CCC[C@H]1C(=O)N[C@@H](Cc1c[nH]c2ccccc12)C(=O)N[C@H]1CSSC[C@@H](C(=O)N[C@@H](C)C(=O)N[C@@H](C)C(=O)N[C@@H](CC(C)C)C(=O)N[C@@H](CCCNC(=N)N)C(=O)N[C@@H](CCC(N)=O)C(=O)N[C@@H](CCSC)C(=O)NCC(=O)NCC(=O)O)NC(=O)[C@H](CCC(N)=O)NC(=O)[C@H](CC(C)C)NC(=O)CNC(=O)CNC(=O)[C@@H]2CCCN2C(=O)[C@H](CC(=O)O)NC(=O)[C@H](CC(C)C)NC(=O)[C@H]([C@@H](C)O)NC1=O [SEQ ID NO: 421, I P W C T L D P G G L Q C A A L R Q M] | 7580 |  |  |  |  |  |  |  |
| CC[C@H](C)[C@H](N)C(=O)N1CCC[C@H]1C(=O)N[C@@H](Cc1c[nH]c2ccccc12)C(=O)N[C@H]1CSSC[C@@H](C(=O)N[C@@H](C)C(=O)N[C@@H](Cc2ccccc2)C(=O)N[C@@H](CC(C)C)C(=O)N[C@@H](CCCNC(=N)N)C(=O)N[C@@H](CCC(N)=O)C(=O)N[C@@H](CCSC)C(=O)NCC(=O)NCC(=O)O)NC(=O)[C@H](CCC(N)=O)NC(=O)[C@H](CC(C)C)NC(=O)CNC(=O)CNC(=O)[C@@H]2CCCN2C(=O)[C@H](CC(=O)O)NC(=O)[C@H](CC(C)C)NC(=O)[C@H]([C@@H](C)O)NC1=O [SEQ ID NO: 422, I P W C T L D P G G L Q C A F L R Q M] | 903 |  |  |  |  |  |  |  |
| CC[C@H](C)[C@H](N)C(=O)N1CCC[C@H]1C(=O)N[C@@H](Cc1c[nH]c2ccccc12)C(=O)N[C@H]1CSSC[C@@H](C(=O)N[C@@H](C)C(=O)N[C@@H](Cc2ccc(O)cc2)C(=O)N[C@@H](CC(C)C)C(=O)N[C@@H](CCCNC(=N)N)C(=O)N[C@@H](CCC(N)=O)C(=O)N[C@@H](CCSC)C(=O)NCC(=O)NCC(=O)O)NC(=O)[C@H](CCC(N)=O)NC(=O)[C@H](CC(C)C)NC(=O)CNC(=O)CNC(=O)[C@@H]2CCCN2C(=O)[C@H](CC(=O)O)NC(=O)[C@H](CC(C)C)NC(=O)[C@H]([C@@H](C)O)NC1=O [SEQ ID NO: 423, I P W C T L D P G G L Q C A Y L R Q M] | 664 |  |  |  |  |  |  |  |
| CC[C@H](C)[C@H](N)C(=O)N1CCC[C@H]1C(=O)N[C@@H](Cc1c[nH]c2ccccc12)C(=O)N[C@H]1CSSC[C@@H](C(=O)N[C@@H](C)C(=O)N[C@@H](Cc2c[nH]cn2)C(=O)N[C@@H](CC(C)C)C(=O)N[C@@H](CCCNC(=N)N)C(=O)N[C@@H](CCC(N)=O)C(=O)N[C@@H](CCSC)C(=O)NCC(=O)NCC(=O)O)NC(=O)[C@H](CCC(N)=O)NC(=O)[C@H](CC(C)C)NC(=O)CNC(=O)CNC(=O)[C@@H]2CCCN2C(=O)[C@H](CC(=O)O)NC(=O)[C@H](CC(C)C)NC(=O)[C@H]([C@@H](C)O)NC1=O [SEQ ID NO: 424, I P W C T L D P G G L Q C A H L R Q M] | 1520 |  |  |  |  |  |  |  |
| CC[C@H](C)[C@H](N)C(=O)N1CCC[C@H]1C(=O)N[C@@H](Cc1c[nH]c2ccccc12)C(=O)N[C@H]1CSSC[C@@H](C(=O)N[C@@H](C)C(=O)N[C@@H](Cc2c[nH]c3ccccc23)C(=O)N[C@@H](C)C(=O)N[C@@H](CCCNC(=N)N)C(=O)N[C@@H](CCC(N)=O)C(=O)N[C@@H](CCSC)C(=O)NCC(=O)NCC(=O)O)NC(=O)[C@H](CCC(N)=O)NC(=O)[C@H](CC(C)C)NC(=O)CNC(=O)CNC(=O)[C@@H]2CCCN2C(=O)[C@H](CC(=O)O)NC(=O)[C@H](CC(C)C)NC(=O)[C@H]([C@@H](C)O)NC1=O [SEQ ID NO: 425, I P W C T L D P G G L Q C A W A R Q M] | 1850 |  |  |  |  |  |  |  |
| CC[C@H](C)[C@H](N)C(=O)N1CCC[C@H]1C(=O)N[C@@H](Cc1c[nH]c2ccccc12)C(=O)N[C@H]1CSSC[C@@H](C(=O)N[C@@H](C)C(=O)N[C@@H](Cc2c[nH]c3ccccc23)C(=O)N[C@H](C(=O)N[C@@H](CCCNC(=N)N)C(=O)N[C@@H](CCC(N)=O)C(=O)N[C@@H](CCSC)C(=O)NCC(=O)NCC(=O)O)[C@@H](C)CC)NC(=O)[C@H](CCC(N)=O)NC(=O)[C@H](CC(C)C)NC(=O)CNC(=O)CNC(=O)[C@@H]2CCCN2C(=O)[C@H](CC(=O)O)NC(=O)[C@H](CC(C)C)NC(=O)[C@H]([C@@H](C)O)NC1=O [SEQ ID NO: 426, I P W C T L D P G G L Q C A W I R Q M] | 378 |  |  |  |  |  |  |  |
| CC[C@H](C)[C@H](N)C(=O)N1CCC[C@H]1C(=O)N[C@@H](Cc1c[nH]c2ccccc12)C(=O)N[C@H]1CSSC[C@@H](C(=O)N[C@@H](C)C(=O)N[C@@H](Cc2c[nH]c3ccccc23)C(=O)N[C@H](C(=O)N[C@@H](CCCNC(=N)N)C(=O)N[C@@H](CCC(N)=O)C(=O)N[C@@H](CCSC)C(=O)NCC(=O)NCC(=O)O)C(C)C)NC(=O)[C@H](CCC(N)=O)NC(=O)[C@H](CC(C)C)NC(=O)CNC(=O)CNC(=O)[C@@H]2CCCN2C(=O)[C@H](CC(=O)O)NC(=O)[C@H](CC(C)C)NC(=O)[C@H]([C@@H](C)O)NC1=O [SEQ ID NO: 427, I P W C T L D P G G L Q C A W V R Q M] | 411 |  |  |  |  |  |  |  |
| CC[C@H](C)[C@H](N)C(=O)N1CCC[C@H]1C(=O)N[C@@H](Cc1c[nH]c2ccccc12)C(=O)N[C@H]1CSSC[C@@H](C(=O)N[C@@H](C)C(=O)N[C@@H](Cc2c[nH]c3ccccc23)C(=O)N[C@@H](CC(C)C)C(=O)N[C@@H](C)C(=O)N[C@@H](CCC(N)=O)C(=O)N[C@@H](CCSC)C(=O)NCC(=O)NCC(=O)O)NC(=O)[C@H](CCC(N)=O)NC(=O)[C@H](CC(C)C)NC(=O)CNC(=O)CNC(=O)[C@@H]2CCCN2C(=O)[C@H](CC(=O)O)NC(=O)[C@H](CC(C)C)NC(=O)[C@H]([C@@H](C)O)NC1=O [SEQ ID NO: 428, I P W C T L D P G G L Q C A W L A Q M] | 490 |  |  |  |  |  |  |  |
| D C S M W E J G V E L C W [SEQ ID NO: 224] |  | + (Rγc ligand competes with phage binding.) | + (Rγc ligand competes with phage binding.) | + (Rγc ligand competes with phage binding.) | + (Rγc ligand competes with phage binding.) | + (Rγc ligand competes with phage binding.) | − |  |
| M C W L E W G E W V G S C L [SEQ ID NO: 236] |  | + (Rγc ligand competes with phage binding.) | + (Rγc ligand competes with phage binding.) | + (Rγc ligand competes with phage binding.) | + (Rγc ligand competes with phage binding.) | + (Rγc ligand competes with phage binding.) | − |  |
| R T C T E W E N V V L C W V [SEQ ID NO: 202] |  | +^1 (Rγc ligand competes with phage binding.) | + (Rγc ligand competes with phage binding.) | + (Rγc ligand competes with phage binding.) | + (Rγc ligand competes with phage binding.) | + (Rγc ligand competes with phage binding.) | − |  |
| S L L K C Y N A S T C A S V F [SEQ ID NO: 930] |  | −^2 | − | − | − | − | + (Rγc ligand competes with phage binding.) |  |
| V V C Q D W E G V E L C W Q [SEQ ID NO: 965] |  |  |  |  |  |  |  | Competition with Phage Clone SEQ ID NO: 5 (Family 1) for binding to the IL-7Rα subunit ([3]; phage clone 5, immobilized IL-7Rα ECD): 0; Competition with Phage Clone SEQ ID NO: 43 (Family 3A) for binding to the IL-7Rα subunit ([3]; phage clone 43, immobilized IL-7Rα ECD): 0; Competition with Phage Clone SEQ ID NO: 104 (Family 3B) for binding to the IL-7Rα subunit ([3]; phage clone 104, immobilized IL-7Rα ECD): 0; Competition with Phage Clone SEQ ID NO: 313 (Family 2) for binding to the IL-7Rα subunit ([3]; phage clone 313, immobilized IL-7Rα ECD): 0; Competition with Phage Clone SEQ ID NO: 965 (N/A) for binding to the IL-7Rα subunit ([3]; phage clone 965, immobilized IL-7Rα ECD): 0 |
| Y D C R I A Q V G E L C D L [SEQ ID NO: 58, IL-2Rβ Ligand, reference compound] |  | − | − | − | − | − | − | Competition for binding to the binding site with the group of Rγc ligands [2]: does not compete |
